Measured values reported in patent US20240101688A1 (MYTHIC THERAPEUTICS, published 2024).
Substitutions are numbered along the chain they refer to. Blank lines part the entries; values can stand above or below the binder they belong to.

Assays:
[1] = target: T1, MET (cMET, Sino Biological Cat. No. 10692-H08H) (UniProt P08581 25-932); test: BLI: antibody captured on anti-human Fc biosensor, MET in solution; association at pH 7.4 (0-120 s), dissociation at pH 7.4 (black trace) or pH 5.4 (grey trace)
T1 construct: Soluble analyte of the BLI assays
T1 sequence (P08581 25-932 limits assumed): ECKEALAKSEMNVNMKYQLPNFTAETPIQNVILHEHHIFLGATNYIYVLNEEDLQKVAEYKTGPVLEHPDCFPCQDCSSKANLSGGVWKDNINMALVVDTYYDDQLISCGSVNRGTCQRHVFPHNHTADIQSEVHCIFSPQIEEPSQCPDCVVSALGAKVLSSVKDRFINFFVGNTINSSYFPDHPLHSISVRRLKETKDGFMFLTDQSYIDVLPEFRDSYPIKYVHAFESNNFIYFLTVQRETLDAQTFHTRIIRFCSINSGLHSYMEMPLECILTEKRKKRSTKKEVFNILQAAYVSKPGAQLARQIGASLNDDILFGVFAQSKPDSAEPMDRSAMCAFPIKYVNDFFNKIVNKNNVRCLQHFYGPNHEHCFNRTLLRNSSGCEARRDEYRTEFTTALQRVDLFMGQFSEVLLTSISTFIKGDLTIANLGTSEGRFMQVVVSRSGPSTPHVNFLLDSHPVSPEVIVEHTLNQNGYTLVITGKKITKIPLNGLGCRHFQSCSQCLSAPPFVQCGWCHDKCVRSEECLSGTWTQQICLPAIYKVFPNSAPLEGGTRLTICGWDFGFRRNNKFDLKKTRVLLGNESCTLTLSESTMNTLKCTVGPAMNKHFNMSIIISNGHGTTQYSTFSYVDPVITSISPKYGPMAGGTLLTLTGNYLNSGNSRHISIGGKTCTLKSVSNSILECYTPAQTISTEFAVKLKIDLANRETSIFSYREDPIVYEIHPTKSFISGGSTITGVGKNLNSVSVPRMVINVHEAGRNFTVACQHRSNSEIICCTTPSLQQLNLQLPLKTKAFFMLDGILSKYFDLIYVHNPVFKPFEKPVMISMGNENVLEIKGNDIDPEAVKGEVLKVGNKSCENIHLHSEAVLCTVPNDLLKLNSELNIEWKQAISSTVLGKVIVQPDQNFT
Description: (§1) After allowing for four days of protein expression, cell culture supernatants were collected, quantified by SDS-PAGE analysis, and the pH dependence of the variant was evaluated using biolayer interferometry (BLI) on an Octet RED 96e instrument. Briefly, cell culture supernatants were diluted based on qualitative expression level of the variant determined by visual examination of SDS-PAGE gels, 5 μL of cell culture supernatant was diluted into 195 μL of 1×PBST, pH 7.4 for high expressors, 25 μL of cell culture supernatant was diluted into 175 μL of 1×PBST, pH 7.4 for medium expressors and 100 μL of cell culture supernatant was diluted into 100 μL of 1×PBST, pH 7.4 for low expressors for loading onto the sensor tips. Diluted supernatants were then captured on an anti-human Fc sensor (Forte Bio). A baseline was established using 1×PBST (50 mM Potassium Phosphate Buffer+150 mM NaCl+0.05% Tween 20), pH 7.4, and the sensor was associated with 50 nM of MET (cMET, Sino Biological Cat. No. 10692-H08H) in 1×PBST, pH 7.4, for 120 sec to generate an association curve. In the dissociation phase, the antibody-antigen complex on the sensor was exposed to 1×PBST, pH 7.4 or pH 5.4, for 300-600 sec.

[2] = target: T2, MET Proto-Oncogene, Receptor Tyrosine Kinase (MET), on cells (human, UniProt P08581 25-1390); test: flow cytometry titration on HUVEC cells (8k/cell), pH 7.4; printed as Affinity at pH 7.4
T2 construct: also called cMET; c-Met
T2 sequence (P08581 25-1390): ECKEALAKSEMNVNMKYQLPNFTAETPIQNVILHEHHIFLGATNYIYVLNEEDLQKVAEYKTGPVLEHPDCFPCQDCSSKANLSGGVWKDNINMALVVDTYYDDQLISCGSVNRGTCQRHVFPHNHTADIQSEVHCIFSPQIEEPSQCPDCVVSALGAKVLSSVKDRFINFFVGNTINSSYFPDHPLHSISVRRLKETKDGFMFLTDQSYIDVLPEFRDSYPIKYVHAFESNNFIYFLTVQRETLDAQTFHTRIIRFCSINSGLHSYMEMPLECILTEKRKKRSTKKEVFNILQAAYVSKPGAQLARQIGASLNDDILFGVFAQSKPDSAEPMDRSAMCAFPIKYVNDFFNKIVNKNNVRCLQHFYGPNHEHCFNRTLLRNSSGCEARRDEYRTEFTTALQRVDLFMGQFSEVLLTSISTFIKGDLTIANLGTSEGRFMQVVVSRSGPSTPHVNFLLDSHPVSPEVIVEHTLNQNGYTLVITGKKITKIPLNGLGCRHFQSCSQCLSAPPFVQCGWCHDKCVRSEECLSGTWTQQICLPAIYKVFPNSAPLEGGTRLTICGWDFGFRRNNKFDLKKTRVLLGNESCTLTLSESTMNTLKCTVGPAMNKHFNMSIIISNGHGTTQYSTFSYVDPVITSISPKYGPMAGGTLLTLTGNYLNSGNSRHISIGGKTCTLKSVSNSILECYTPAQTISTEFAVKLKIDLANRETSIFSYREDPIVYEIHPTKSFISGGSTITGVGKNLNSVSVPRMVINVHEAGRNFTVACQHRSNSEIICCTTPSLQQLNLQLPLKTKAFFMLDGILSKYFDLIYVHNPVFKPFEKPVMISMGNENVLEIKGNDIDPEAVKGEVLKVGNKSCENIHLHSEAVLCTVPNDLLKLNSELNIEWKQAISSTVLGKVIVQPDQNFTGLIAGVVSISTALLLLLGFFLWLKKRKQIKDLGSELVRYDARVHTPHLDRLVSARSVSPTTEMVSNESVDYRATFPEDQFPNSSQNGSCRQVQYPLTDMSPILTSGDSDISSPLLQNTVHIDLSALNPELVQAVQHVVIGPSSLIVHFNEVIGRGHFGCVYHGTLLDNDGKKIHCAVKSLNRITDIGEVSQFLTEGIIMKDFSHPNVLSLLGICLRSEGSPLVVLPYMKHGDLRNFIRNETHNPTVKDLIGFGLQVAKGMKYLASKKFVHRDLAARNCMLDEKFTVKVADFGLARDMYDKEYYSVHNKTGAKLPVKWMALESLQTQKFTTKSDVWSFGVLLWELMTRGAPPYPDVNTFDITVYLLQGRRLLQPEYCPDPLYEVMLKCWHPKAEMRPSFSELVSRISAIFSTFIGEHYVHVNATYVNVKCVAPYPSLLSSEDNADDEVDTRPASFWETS
Description: (§2) Measurement of the affinity of pH-engineered antibodies specific for MET was performed by FACS analysis on cell lines with ranges of cMET expression; Detroit-562 cells (ATCC; CCL-138), NCI-H1975 (ATCC CRL-5908) and HUVEC (C2519A, Lonza). Cell lines selected for this study were obtained from commercial sources and cultured using manufacturer recommended conditions. All cell lines were cultured upon receipt, expanded and cryopreserved at a similar passage number for use in the affinity experiments. Briefly, 1.0×10\hat{ }5 cells that express MET are plated per well in a 96-well plate in 100 μL media. The cells are washed two times with 200 μL of FACS buffer (1×PBS containing 3% Fetal Bovine Serum) at pH 7.4. The purified protein samples are diluted into FACS buffer at pH 7.4, for a titration from 100 nM to 1 pM, and added to the cells and allowed to bind for 2 hours on ice. After incubation with the primary antibodies, cells are washed twice as before, and then 100 μl of secondary goat anti-Human AF488 (IgG Cross-Adsorbed polyclonal secondary antibody), diluted 1:200, is added in FACS buffer pH 7.4, and incubated for 1 hour on ice. The plates are washed twice Binding is read on a flow cytometer (Accuri C6, BD Biosciences). Binding is observed as a shift in the FL1 signal (as a mean fluorescence intensity) versus secondary alone.

[3] = target: T2, MET Proto-Oncogene, Receptor Tyrosine …; test: affinity on HUVEC against affinity on Detroit-562, flow cytometry, pH 7.4
Description: as §2

[4] = target: T2, MET Proto-Oncogene, Receptor Tyrosine …; test: flow cytometry titration on Detroit-562 cells (125K/cell), pH 7.4; printed as Affinity at pH 7.4
Description: as §2

[5] = target: T1, MET (cMET, Sino Biological Cat. No. …); test: BLI: antibody captured on anti-human Fc biosensor, MET in solution; three runs: pH 7.4 throughout (black), pH 6.4 throughout (light grey), association at pH 7.4 then release at lower pH (dark grey; key on D00015: pH 5.4; legend paragraph 84: pH 6.4); association 0-120 s
[6] = target: T1, MET (cMET, Sino Biological Cat. No. …); test: as above; remark: listed apart in the source
[7] = target: T1, MET (cMET, Sino Biological Cat. No. …); test: BLI: antibody captured on anti-human Fc biosensor, MET in solution; one run at pH 7.4 (black) and one at pH 5.4 (grey); association 0-120 s, then dissociation
Description: as §1, with “Bio).” for “Bio). A baseline was established using 1×PBST (50 mM Potassium Phosphate Buffer+150 mM NaCl+0.05% Tween 20), pH 7.4, and the sensor was associated with 50 nM of MET (cMET, Sino Biological Cat. No. 10692-H08H) in 1×PBST, pH 7.4, for 120 sec to generate an association curve. In the dissociation phase, the antibody-antigen complex on the sensor was exposed to 1×PBST, pH 7.4 or pH 5.4, for 300-600 sec.”

[8] = target: T1, MET (cMET, Sino Biological Cat. No. …); test: BLI: antibody captured on anti-human Fc biosensor, MET in solution; three runs: pH 7.4 throughout (black), pH 6.4 throughout (light grey), association at pH 7.4 then release at lower pH (dark grey; key on D00015: pH 5.4; legend paragraph 84: pH 6.4); association 0-120 s; remark: listed apart in the source
[9] = target: T1, MET (cMET, Sino Biological Cat. No. …); test: as above; remark: listed apart in the source

B1: MYT4826 (antibody, V domains shown)
VH: QVQLVQSGAEVKKPGASVKVSCKASGYTFTHYYMHWVRQAPGQGLEWMGRVNPNRRHTTYNQKFEGRVTMTTDTSTSTAYMELRSLRSDDTAVYYCARANWLDYWGQGTTVTVSS
VL: DIQMTQSPSSLSASVGDRVTITCSVSSSVSSIYLHWYQQKPGKAPKLLIYSTSNLASGVPSRFSGSGSGTDFTLTISSLQPEDFATYYCQVYSGYPLTFGGGTKVEIKR
notes: Emibetuzumab variant
binding result [1]: binds

B2: MYT5309 (antibody, V domains shown)
VH: B1 VH with H57G
VL: B1 VL with V91H
notes: Emibetuzumab variant
Kd [2]: > 200 nM | Fold Avidity [3]: > 50 fold | Kd [4]: 1.34 nM

B3: MYT4837 (antibody, V domains shown)
VH: B1 VH with N54H
VL: B1 VL
notes: Emibetuzumab variant
Kd [2]: > 100 nM | Fold Avidity [3]: > 100 fold | Kd [4]: 1.02 nM

B5: MYT4827 (antibody, V domains shown)
VH: B1 VH with H57G, N100H
VL: B1 VL
notes: Emibetuzumab variant
binding result [6]: binds

B6: MYT4313 (antibody, V domains shown)
VH: QVQLVQSGAEVKKPGASVKVSCKASGYTFTSYWMHWVKQAPGQGLDWIGYIKPSTDNTHYNQKFKDKATLTADKSTSTAYMELSSLRSEDTAVYYCARSYGHYPLMDYWGQGTTVTVSS
VL: QIVLTQSPAILSLSPGERATLSCSASSSVTSNYLYWYQQKPGSSPKLLIYSTSNLASGVPARFSGSGSGTSYTLTISSLEAEDAASYFCHQWSSYPPTFGSGTKLEIKR
notes: P3D12 variant
binding result [7]: binds

B8: MYT5344 (antibody, V domains shown)
VH: B6 VH with P53H, H59E, H102N
VL: B6 VL with N32H
notes: P3D12 variant
binding result [1]: binds

B9: MYT4888 (antibody, V domains shown)
VH: B6 VH with H59E, H102N, M106H
VL: B6 VL
notes: P3D12 variant; also called MYTH4888
binding result [8]: binds

Continued, values first:

binding result [5]: binds
B4: MYT4849 (antibody, V domains shown)
VH: B1 VH with H31D, H57G
VL: B1 VL with Y33H, S51H
notes: Emibetuzumab variant

Kd [2]: 0.2 nM | Fold Avidity [3]: 0.7 fold | Kd [4]: 0.292 nM
B7: MYT4305 (P3D12) (antibody, V domains shown)
VH: B6 VH with H59E, H102N
VL: QIVLTQSPAILSLSPGERATLSCSASSSVTSNYLYWYQQKPGSSPKLLIYSTSNLASGVPARFSGSGSGTSYTLTISSLEAEDAASYFCHQWSSYPPTFGSGTKLEIK
notes: Human IgG1; also called P3D12 anti-cMET

binding result [1]: binds
B10: MYT5367 (antibody, V domains shown)
VH: B6 VH with Y50H, H59E, H102N
VL: B6 VL with S94H, P96H
notes: P3D12 variant

Kd [2]: > 100 nM | Fold Avidity [3]: > 200 fold | Kd [4]: 0.486 nM
B11: MYT5351 (antibody, V domains shown)
VH: B6 VH with Y50H, H59E, H102N
VL: B6 VL with T52H
notes: P3D12 variant

binding result [9]: binds
B12: MYT4942 (antibody, V domains shown)
VH: QVQLVQSGAEVKKPGASVKVSCKASGHIFTAYTMHWVRQAPGQGLEWMGWIKPNNGLANYAQKFQGRVTMTRDTSISTAYMELSRLRSDDTAVYYCARSEITHEFDHWGQGTLVTVSS
VL: DIVMTQSPDSLAVSLGERATINCKSSESVDSYANSHLHWYQQKPGQPPKLLIYRASTRESGVPDRFSGSGSGTDFTLTISSLQAEDVAVYYCQQSKEDPLTFGGGTKVEIKR
notes: Telisotuzumab variant
